Data published in patent WO2014171532A1 (dated 2014).
Positions count from the first letter of the chain named. One block for each binder: values may come before it.

How the values were obtained:
[1] = molecular target: T1, human mTWEAK variant expressed on HEK293 cells (human, UniProt O43508 1-249); test: flow cytometry (BD FACSArray) on HEK293 cells transfected with human mTWEAK vector, antibody 80 nM to 0.001355 nM, MFI
T1 construct: also called human mTWEAK mutant; membrane type TWEAK
T1 sequence: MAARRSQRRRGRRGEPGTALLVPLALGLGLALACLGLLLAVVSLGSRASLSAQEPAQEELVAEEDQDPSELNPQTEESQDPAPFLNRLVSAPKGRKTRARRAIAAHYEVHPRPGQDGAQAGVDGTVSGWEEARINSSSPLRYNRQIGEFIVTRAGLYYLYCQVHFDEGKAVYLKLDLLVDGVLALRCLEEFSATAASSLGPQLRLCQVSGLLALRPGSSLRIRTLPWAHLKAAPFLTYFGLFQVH

[2] = molecular target: T2, human sTWEAK protein (Peprotech, 310-06) (human, UniProt O43508 97-249); test: ELISA, sTWEAK immobilised at 0.5 μg/mL, antibody 80 nM to 0.0000003 nM, chemiluminescence
T2 construct: Bought protein; also called soluble type TWEAK; ヒトsTWEAK
T2 sequence: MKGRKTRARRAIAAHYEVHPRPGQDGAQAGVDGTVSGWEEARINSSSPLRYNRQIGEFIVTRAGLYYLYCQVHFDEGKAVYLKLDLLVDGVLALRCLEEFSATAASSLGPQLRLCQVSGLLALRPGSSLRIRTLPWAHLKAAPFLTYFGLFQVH

[3] = molecular target: T1, human mTWEAK variant expressed on …; test: hybridoma screening (Examples 3-6)
[4] = molecular target: T2, human sTWEAK protein (Peprotech, 310-06); test: hybridoma screening, antigen ELISA on immobilised sTWEAK (Examples 3-6)

binding result [3]: binds
binding result [4]: binds
B3: TBA4-1 (chimeric antibody) (antibody, V domains shown)
VH: QVQLVESGGGVVQPGRSLRLSCAASGFTFSSYGMHWVRQAPGKGLAWVAIISSDGNNKYYIDSVKGRFTISRDNSKNTLYLQMNNLRAEDTAVYYCAKDSHISIFGAVDSWGQGTLVTVSS
VL: AIQMTQSPSSLSASVGDRVTITCRASQAIRNDLGWYQQKPGKAPKLLIYAASSLQSGVPSRFSGSGSGTDFTLTISSLQPEDFATYYCLQDYNYPWTFGQGTKVEIKR

binding result [1]: binds
binding result [2]: binds
B4: fully human TBA3-25 (antibody, human IgG1, kappa, V domains shown)
VH: QVQLVQSGAEVKKPGASVRVSCKVSGYTLIDLSMHWVRQAPGNGLEWMGGFDPENGEKIYAEKFQGRVTMTEDTSTDTAYMDLSSLRSEDTAVYYCASGYSYGHFDYWGQGTLVTVSS
VL: DIQMTQSPSTLSASVGDRVTITCRASQNIGRWLAWYQQKPGKAPNLLIYKASRLESGVPSRFSGSGSGTEFTLTITSLQPDDFATYYCQQYNRYSRTFGQGTKVEIKR
modifications: in most of the purified antibody: N-terminal glutamine (amino acid 1) modified to pyroglutamic acid; C-terminal lysine (amino acid 448) deleted
notes: Human variable regions of TBA3-25 joined to human Ig gamma1 and human kappa constant regions; Analysis of the purified antibody found pyroglutamate at the heavy chain N-terminus and loss of the heavy chain C-terminal lysine in most of it; also called fully human antibody of TBA3-25; 完全ヒト型TBA3-25

Continued, binder first:

B1: fully human TBA4-1 (antibody, human IgG1, kappa, V domains shown)
VH: B3 VH
VL: B3 VL
notes: Human variable regions of TBA4-1 joined to human Ig gamma1 and human kappa constant regions; also called fully human antibody of TBA4-1; 完全ヒト型TBA4-1
binding result [1]: binds
binding result [2]: binds

B2: fully human TBA3-35.1 (antibody, human IgG1, kappa, V domains shown)
VH: EVQLLESGGGLVQPGGSLRLSCAASGFTFSSYAMSWVRQAPGKGLEWVSAIGNSGFYTHYADSVKGRFTISRDNSKNTLYLQMNSLRAEDTAVYYCAKVGIAVVGDYYQFGMDVWGQGTTVTVSS
VL: B3 VL with A1D, A28G, A50G
binding result [1]: binds
binding result [2]: binds
